Columns and labels:
[1] = Laccase-cellulase catalyzed hydrolysis of pretreated biomass, glucose release; format: biochemical; details: with cellulase 1 or 2, pH 5.1, 50° C., 30 hour
Experimental: FIG. 13. A graphical comparison of glucose released over time during hydrolysis of STEX-SCB at pH 5.1 and 50° C. by each of commercial enzyme preparations Cellulase 1 (CC2) [A]; or Cellulase 2 [B], either alone, or in combination with a laccase enzyme; the tested laccases being respectively LacGL1 and GLlac1 (LacJooSS; Q9HG17) derived from G. lucidum; and laccases derived from Agaricus bisporus (Sigma 40452), Pleurotus ostreatus (Sigma 75117) and, Trametes versicolor (Sigma 51639).
The commercial fungal laccases were purchased as lyophilized protein samples from Sigma Aldrich. A solution of each of the above 5 laccases was prepared in a citric buffer containing 20% of glycerol (pH 5.1, 100 mM).
Two different commercially available cellulase enzyme preparations used in the comparative study were “Cellulase 1” and “Cellulase 2”, which were tested in combination with each of the laccases listed above.
The three different types of pretreated biomass used in the comparative study were sugarcane bagasse, barley straw and wheat straw. The source and pre-treatment of the sugarcane bagasse by steam explosion was as set out in Example 9. […] The composition of the dry and the pretreated biomass were determined according to the US National Renewable Energy Laboratory (NREL) procedures (Sluiter et al, 2010).
The laccase-cellulase catalyzed hydrolysis of the pretreated biomass samples to release glucose was performed as follows: Hydrolysis of 5% (w/v) samples of pretreated sugarcane bagasse, barley straw, and wheat straw biomass were assayed using an Enzyme/Substrate (E/S) ratio of 0.064% w/w for laccases and of 0.4% w/w for each commercial cellulase preparation in each hydrolysis reaction. The E/S dosage was based on the total protein concentration used, as determined using Pierce BCA (BiCinchoninic Acid) protein assay kit microplate procedure according to manufacturer's instruction (Thermo Fisher Scientific, Rockford, US). […]
Laccase and cellulase-mediated hydrolysis of the 3 biomass forms, measured as glucose release, are shown graphically in FIGS. 13, 14 and 15. […]

[2] = Laccase activity assay with ABTS; influence of pH and temperature; format: biochemical
Description: FIG. 8. A surface response plot of the relative activity (U/mL) of the LacGL1 laccase expressed in Pichia pastoris as a function of pH and temperature. The effect of the pH and temperature on the LacGL1 laccase activity, expressed from P. pastoris, was modeled via randomized, full factorial, statistically designed experiment—MODDE program version 7.0.0.1 (Umetrics, Umeå, Sweden). The statistical design consisted of 12 experiments, including a triplicate repetition at the center point (pH 5 and 40° C.), using ABTS as a substrate. The influence of the temperature and pH was monitored between 25-55° C. and pH 4-6 (for 0.1 M citrate-phosphate buffer), respectively. The mixture with the ABTS and buffer at the defined pH value was incubated for 5 min. in a thermocycler set to a desired temperature and afterwards added to a previously pre-diluted enzyme in a microtiter plate which was incubated for 1 min. in a microtiter plate reader set to a desired temperature. After mixing the substrate and buffer with the enzyme, the initial rate of the product formation was measured as described above. The volumes and concentrations of enzyme, substrate, and buffer were identical as for the laccase activity assay.
The laccase activity was measured based on a modified method of Ters et al. (2009). The laccase activity was defined as the amount of the enzyme required to oxidise 1 μmol of ABTS per minute at 25° C., and pH 4.7. The assay mixture contained: 0.1 M citrate-phosphate buffer (255 μL, pH 4.7), ABTS (5 μL, 4 mM (ABTS stock solution)), and pre-diluted laccase (5 μL) that ensured the linear range of Michaelis-Menten kinetics. The oxidation of ABTS was monitored at 420 nm (ε420=36800 M^−1cm^−1) for 2 min. in an Infinite 200 microtiter plate reader (Tecan, Salzburg, Austria). Laccase activity assays on the substrates: hydroquinone (248 nm), 2.6-dimethoxyphenol (470 nm), and guaiacol (436 nm) was done similarly with the substrate concentration as described in Table 2 using the following extinction coefficient values: 17.542 M^−1cm^−1, 35.645 M^−1cm^−1, and 6.400 M^−1cm^−1, respectively (Minussi et al. 2007). The data collection was monitored by the program Tecan i-control version 1.5.14.0 (Tecan, Salzburg, Austria). The calculated laccase activity was corrected by the absorbance of a control sample which contained: 0.1 M citrate-phosphate buffer (255 μL, pH 4.7), ABTS (5 μL, 4 mM), and 5 μL of distilled water instead of the enzyme. […]
The effect of the pH and temperature on the LacGL1 laccase activity was determined with a statistically designed, randomized, full factorial experiment as described in FIG. 8. The relative laccase activity was calculated based on the LacGL1 activity at pH 4.7 and 25° C. […]

glucose release compared to GLlac1 [1]: the same
glucose release compared to the other tested laccases ([1]; p<0.05): significantly enhanced
B1: LacGL1: Fungal laccase from Ganoderma lucidum CBS229.93 (SEQ ID NO: 5/9), recombinantly expressed in Pichia pastoris X-33 (protein, listed as Ganoderma lucidum)
chain: GIGPKTDLTISNADVAPDGYTRAAVVVNGVFPAPLITGNKGDRFQLNVIDQMTNHTMLKSTSIHWHGFFQKGTNWADGPAFINQCPISSGHSFLYDFQVPDQAGTFWYHSHLSTQYCDGLRGPFVVYDPKDPLKKLYDIDDDSTVITLTDWYHVAARLGPRFPLGSDSTLINGLGRSTTNVTADLAVINVTQGKRYRFRLVSLSCDPNYTFSIDDHNMTVIEADGIETQPVTVNAIQIFSAQRYSFVLTANQTIDNYWIRANPNFGNVGFTDGINSAILRYAGADPVEPTTSQQTTQNLLNEVDLHPFVPKRTPGQPTQGGVDTAINMVFNFNGSNFFINNASFVPPTVPVLLQILSGAQAAQDLLPSGSVYTLPVNKSIELTFPATANAPGAPHPFHLHGHAFAVVRSAGSTVYNYDNPVWRDVVSTGTPAAGDNVTIRFQTDNPGPWFLHCHIDFHLEAGFAVVFAEDPTDTSLANPVPKAWSDLCPTYDALSVDDQ
modifications: mat_peptide (1)..(499) Mature LacGL1 laccase (minus signal peptide)
laccase activity ([2]; expressed by recombinant P. pastoris, after sterile filtration, ABTS, 25° C., pH 4.7): 17.5 U/mL
temperature at which activity is highest ([2]; pH 4.7): 40-50 °C
temperature optimum (predicted, highest relative activity) ([2]; pH 4.7, ABTS, factorial model 25-55° C.): 55 °C
pH optimum (highest relative activity) ([2]; substrate ABTS): 4.7
